According to PMC9881148:

What was measured:
p53WT (Homo sapiens) = p53WT (Homo sapiens) (UniProt P04637); assay: FCS; conditions: poly(ADP-ribose), 50 mM Tris pH 7.4, 150 mM NaCl, 3 mM DTT, 0.05% Tween20, 1 h room temperature, 10 nM nucleic acid
[1] = test system: histone H1 (Homo sapiens); assay: FCS; conditions: poly(ADP-ribose), 50 mM Tris pH 7.4, 150 mM NaCl, 3 mM DTT, 0.05% Tween20, 1 h room temperature, 10 nM nucleic acid

Sequence of p53WT (Homo sapiens) (P04637 whole entry): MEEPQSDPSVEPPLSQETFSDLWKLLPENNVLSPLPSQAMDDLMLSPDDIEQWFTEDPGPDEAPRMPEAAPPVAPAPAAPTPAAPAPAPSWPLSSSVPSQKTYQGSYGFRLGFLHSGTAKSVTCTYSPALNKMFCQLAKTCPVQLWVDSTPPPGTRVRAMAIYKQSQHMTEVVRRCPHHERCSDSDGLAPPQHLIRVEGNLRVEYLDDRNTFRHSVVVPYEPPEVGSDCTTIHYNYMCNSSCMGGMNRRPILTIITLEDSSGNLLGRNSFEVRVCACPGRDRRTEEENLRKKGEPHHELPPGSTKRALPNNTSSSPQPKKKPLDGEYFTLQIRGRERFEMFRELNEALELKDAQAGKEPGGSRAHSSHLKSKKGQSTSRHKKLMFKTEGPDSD

PARWT 40-mer showed a Kd (p53WT (Homo sapiens); linear) of 7 nM.

Substance PARHB 40-mer has a Kd (p53WT (Homo sapiens); hyperbranched) of 41 nM.

With PARWT 30-mer the Kd (p53WT (Homo sapiens); linear) was 28 nM.

With PARHB 50-mer the Kd (p53WT (Homo sapiens); hyperbranched) was 30 nM.

In the case of PARHB 20-mer, the Kd ([1]; hyperbranched) is reported as 8 nM.

Work on PARHB 30-mer yielded a Kd (p53WT (Homo sapiens); hyperbranched) of 99 nM.

PARWT 50-mer was tested, and the Kd (p53WT (Homo sapiens); first binding event, no saturation up to 5 uM, linear) was 8 nM.

PARWT 20-mer showed a Kd ([1]; also printed as 4 nM in the comparison with PARHB, linear) of 5 nM.
